These results are taken from patent US20240117057A1 (CELLDEX THERAPEUTICS, published 2024).

Like-named read-outs stand apart in the source and are kept apart here.

In general, koff refers to the rate constant with which the complex falls apart. Broadly, the Kd is a measure of binding affinity in units of concentration. The term kon denotes the rate constant with which the complex forms.

Test [1] concerns the target T1, recombinant human FcγRIIa (human, UniProt P12318 36-218, limits assumed).
T1 construct: Histidine-tagged recombinant receptor captured on anti-Penta-His biosensors; not shown: histidine tag
T1 sequence (looked up): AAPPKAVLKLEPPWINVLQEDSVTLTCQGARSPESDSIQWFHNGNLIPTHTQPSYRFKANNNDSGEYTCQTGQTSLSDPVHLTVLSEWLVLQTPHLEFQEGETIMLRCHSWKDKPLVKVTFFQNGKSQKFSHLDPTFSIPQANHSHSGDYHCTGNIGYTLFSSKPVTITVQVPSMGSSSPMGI
As to the kind of experiment: Bio-layer interferometry (Octet QKe), His-tagged FcγRIIa captured on anti-Penta-His biosensors; printed as Kdis; range 500-62.5 nM; fit R2 0.9791. For orientation: BLI is a label-free optical method that tracks binding on a fibre tip over time.

For test [2], the target named is T2, recombinant human FcγRIIIa (human, UniProt P08637 17-208).
T2 construct: Histidine-tagged recombinant receptor captured on anti-Penta-His biosensors; not shown: histidine tag
T2 sequence (P08637 17-208 limits assumed): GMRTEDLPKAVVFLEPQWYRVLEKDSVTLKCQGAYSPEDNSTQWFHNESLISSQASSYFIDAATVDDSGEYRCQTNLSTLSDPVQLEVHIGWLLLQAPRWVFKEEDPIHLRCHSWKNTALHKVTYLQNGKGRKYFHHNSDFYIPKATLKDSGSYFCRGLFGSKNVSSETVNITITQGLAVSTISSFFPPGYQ
In words: Bio-layer interferometry (Octet QKe), His-tagged FcγRIIIa captured on anti-Penta-His biosensors; printed as Kdis; range 125-15.6 nM; fit R2 0.9895.

Test [3] concerns the target T3, human neonatal Fc Receptor (FcRn) (human, UniProt P55899 24-297; P61769 21-119).
T3 construct: Histidine-tagged recombinant receptor captured on anti-Penta-His biosensors; not shown: histidine tag
In words: BLI (Octet QKe) at pH 6.0, His-tagged receptor on anti-Penta-His biosensors; pH 6.0 (to simulate endocytic conditions).

Test [4] addresses T4, recombinant human FcγRIIIb (human, UniProt O75015 17-200).
T4 construct: Histidine-tagged recombinant receptor captured on anti-Penta-His biosensors; not shown: histidine tag
In words: Bio-layer interferometry (Octet QKe), His-tagged FcγRIIIb captured on anti-Penta-His biosensors; range 500-62.5 nM; fit R2 0.9723.

The target of test [5] is T5, recombinant human FcγRI (human, UniProt P12314 16-288).
T5 construct: Histidine-tagged recombinant receptor captured on anti-Penta-His biosensors; also called FcgRI; not shown: histidine tag
T5 sequence (P12314 16-288 limits assumed): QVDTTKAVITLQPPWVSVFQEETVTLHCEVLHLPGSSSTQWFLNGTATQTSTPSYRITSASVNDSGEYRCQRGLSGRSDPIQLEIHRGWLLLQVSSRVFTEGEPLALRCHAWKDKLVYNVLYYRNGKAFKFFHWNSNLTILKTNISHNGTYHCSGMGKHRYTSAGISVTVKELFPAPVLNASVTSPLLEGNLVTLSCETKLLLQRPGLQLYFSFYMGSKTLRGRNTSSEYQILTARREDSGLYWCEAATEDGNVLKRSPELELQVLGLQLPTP
As to the kind of experiment: Bio-layer interferometry (Octet QKe), His-tagged FcγRI captured on anti-Penta-His biosensors; printed as Kdis; range 62.5-7.8 nM; fit R2 0.9955.

Test [6] addresses T3, human neonatal Fc Receptor (FcRn). As to the kind of experiment: Bio-layer interferometry (Octet QKe), His-tagged FcRn captured on anti-Penta-His biosensors, association and dissociation at pH 6.0; printed as Kdis; range 500-62.5 nM; fit R2 0.9757.
Protocol: (§1) Binding to recombinant human Fc receptors was measured by bio-layer interferometry using an Octet® QKe instrument. […] Curve fitting was performed using the instrument's analysis software. Binding to FcRn was performed with association and dissociation steps at pH 6.0 as well as pH 7.2.
(§2) Binding to the human neonatal Fc Receptor (FcRn) was tested at physiological pH 7.2 as well as at pH 6.0 to simulate endocytic conditions.
Test [7] has as its target T2, recombinant human FcγRIIIa. In words: Bio-layer interferometry (Octet QKe), His-tagged FcγRIIIa captured on anti-Penta-His biosensors; range 125-15.6 nM; fit R2 0.9895.
Protocol: as §1
Test [8] addresses T4, recombinant human FcγRIIIb. In words: Bio-layer interferometry (Octet QKe), His-tagged FcγRIIIb captured on anti-Penta-His biosensors; printed as Kdis; range 500-62.5 nM; fit R2 0.9723.
Protocol: as §1
The target in test [9] is T6, recombinant human FcγRIIb (human, UniProt P31994 43-217, limits assumed).
T6 construct: Histidine-tagged recombinant receptor captured on anti-Penta-His biosensors; not shown: histidine tag
T6 sequence (looked up): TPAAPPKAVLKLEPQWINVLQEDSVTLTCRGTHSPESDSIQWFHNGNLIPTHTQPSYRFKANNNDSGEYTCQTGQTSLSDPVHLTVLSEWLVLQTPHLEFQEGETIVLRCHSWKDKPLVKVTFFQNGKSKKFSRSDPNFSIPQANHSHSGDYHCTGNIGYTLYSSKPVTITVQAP
In words: Bio-layer interferometry sensorgrams, FcγRIIb on the sensor, serial dilutions of antibody.

Test [10] concerns the target T5, recombinant human FcγRI. In words: Bio-layer interferometry (Octet QKe), His-tagged FcγRI captured on anti-Penta-His biosensors; range 62.5-7.8 nM; fit R2 0.9955.
Protocol: (§3) Binding to recombinant human Fc receptors was measured by bio-layer interferometry using an Octet® QKe instrument. […] Curve fitting was performed using the instrument's analysis software.
The next test deals with human KIT (human, UniProt P10721 26-976). As to the kind of experiment: cell-based or functional assay.
Chain of human KIT (P10721 other isoform, or with tags, fused parts or gaps limits assumed): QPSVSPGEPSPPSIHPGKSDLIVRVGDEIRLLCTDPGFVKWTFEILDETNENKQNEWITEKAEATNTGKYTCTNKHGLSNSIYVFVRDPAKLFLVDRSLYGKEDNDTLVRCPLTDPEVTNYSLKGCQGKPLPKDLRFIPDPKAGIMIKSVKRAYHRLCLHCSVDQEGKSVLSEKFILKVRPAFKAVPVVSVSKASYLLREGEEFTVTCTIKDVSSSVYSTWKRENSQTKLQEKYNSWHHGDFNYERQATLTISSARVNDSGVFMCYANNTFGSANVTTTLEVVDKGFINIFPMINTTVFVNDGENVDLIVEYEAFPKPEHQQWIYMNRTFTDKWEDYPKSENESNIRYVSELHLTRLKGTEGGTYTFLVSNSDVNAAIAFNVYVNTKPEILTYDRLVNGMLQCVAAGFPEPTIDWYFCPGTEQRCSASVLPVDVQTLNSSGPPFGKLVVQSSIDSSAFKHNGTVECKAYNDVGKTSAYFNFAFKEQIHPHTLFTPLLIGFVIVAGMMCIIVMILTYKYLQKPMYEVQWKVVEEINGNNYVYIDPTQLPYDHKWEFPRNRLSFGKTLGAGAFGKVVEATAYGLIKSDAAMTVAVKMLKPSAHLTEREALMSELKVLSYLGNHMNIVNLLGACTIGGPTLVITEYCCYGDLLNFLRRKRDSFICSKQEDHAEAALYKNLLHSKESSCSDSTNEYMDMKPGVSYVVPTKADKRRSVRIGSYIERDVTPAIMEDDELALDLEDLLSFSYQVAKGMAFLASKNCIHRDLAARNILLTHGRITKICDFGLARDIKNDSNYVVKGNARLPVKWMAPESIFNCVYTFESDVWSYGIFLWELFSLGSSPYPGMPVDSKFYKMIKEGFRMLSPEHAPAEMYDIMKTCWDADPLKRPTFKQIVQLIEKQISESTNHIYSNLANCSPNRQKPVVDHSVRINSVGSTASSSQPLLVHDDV
Test [11] concerns the target T3, human neonatal Fc Receptor (FcRn). In words: Bio-layer interferometry (Octet QKe), His-tagged FcRn captured on anti-Penta-His biosensors, association and dissociation at pH 6.0; range 500-62.5 nM; fit R2 0.9757.
Protocol: as §1
Test [12] deals with T1, recombinant human FcγRIIa. In words: Bio-layer interferometry (Octet QKe), His-tagged FcγRIIa captured on anti-Penta-His biosensors; range 500-62.5 nM; fit R2 0.9791.
Protocol: as §1
Test [13] has as its target T5, recombinant human FcγRI. In words: BLI (Octet QKe), His-tagged receptor on anti-Penta-His biosensors, antibody in solution.
Protocol: as §3
Test [14] concerns the target T4, recombinant human FcγRIIIb. The test is described as above.
Protocol: as §3
In test [15] the target is T1, recombinant human FcγRIIa. The test is described as above.
Protocol: as §3
In test [16] the target is T2, recombinant human FcγRIIIa. The test is described as above.
Protocol: as §3
Test [17] deals with T5, recombinant human FcγRI. As to the kind of experiment: Bio-layer interferometry (Octet QKe), His-tagged FcγRI captured on anti-Penta-His biosensors.
Protocol: as §1
The target in test [18] is T3, human neonatal Fc Receptor (FcRn). As to the kind of experiment: BLI (Octet QKe) at pH 6.0, His-tagged receptor on anti-Penta-His biosensors.
Protocol: as §1, §2
For test [19] the target is unchanged. As to the kind of experiment: Bio-layer interferometry (Octet QKe), His-tagged FcRn captured on anti-Penta-His biosensors, association and dissociation at pH 7.2; range 500-15.6 nM; fit R2 0.9876.
Protocol: as §1
For test [20], the target named is T4, recombinant human FcγRIIIb. As to the kind of experiment: Bio-layer interferometry sensorgrams, FcγRIIIb on the sensor, serial dilutions of antibody.
Protocol: as §1
For test [21], the target named is T3, human neonatal Fc Receptor (FcRn). As to the kind of experiment: Bio-layer interferometry (Octet QKe), His-tagged FcRn captured on anti-Penta-His biosensors, association and dissociation at pH 6.0; printed as Kdis; range 31.25-1.9 nM; fit R2 0.9869.
Protocol: as §1
Test [22] has as its target T6, recombinant human FcγRIIb. In words: Bio-layer interferometry sensorgrams, FcγRIIb on the sensor, serial dilutions of antibody. The source holds these as a separate data set.
Protocol: as §3
Test [23] deals with T3, human neonatal Fc Receptor (FcRn). As to the kind of experiment: BLI (Octet QKe) at pH 7.2, His-tagged receptor on anti-Penta-His biosensors.
Protocol: as §1, §2
For test [24] the target is unchanged. In words: Bio-layer interferometry (Octet QKe), His-tagged FcRn captured on anti-Penta-His biosensors, association and dissociation at pH 7.2; printed as Kdis; range 500-15.6 nM; fit R2 0.9876.
Protocol: as §1, §2
The target in test [25] is T2, recombinant human FcγRIIIa. As to the kind of experiment: Bio-layer interferometry sensorgrams, FcγRIIIa on the sensor, serial dilutions of antibody.
Protocol: as §3
Test [26] has as its target T1, recombinant human FcγRIIa. In words: Bio-layer interferometry (Octet QKe), His-tagged FcγRIIa captured on anti-Penta-His biosensors.
Protocol: as §3
Test [27] concerns the target T3, human neonatal Fc Receptor (FcRn). In words: Bio-layer interferometry (Octet QKe), His-tagged FcRn captured on anti-Penta-His biosensors, association and dissociation at pH 6.0; range 31.25-1.9 nM; fit R2 0.9869.
Protocol: as §1, §2

T4 sequence (O75015 17-200 limits assumed): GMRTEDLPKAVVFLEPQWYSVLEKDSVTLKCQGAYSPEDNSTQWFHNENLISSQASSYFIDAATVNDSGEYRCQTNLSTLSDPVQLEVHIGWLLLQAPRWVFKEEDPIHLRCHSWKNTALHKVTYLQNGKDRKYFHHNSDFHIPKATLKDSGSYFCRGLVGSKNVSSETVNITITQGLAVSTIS
T3 sequence (P55899 24-297 limits assumed, chain 1 of 2): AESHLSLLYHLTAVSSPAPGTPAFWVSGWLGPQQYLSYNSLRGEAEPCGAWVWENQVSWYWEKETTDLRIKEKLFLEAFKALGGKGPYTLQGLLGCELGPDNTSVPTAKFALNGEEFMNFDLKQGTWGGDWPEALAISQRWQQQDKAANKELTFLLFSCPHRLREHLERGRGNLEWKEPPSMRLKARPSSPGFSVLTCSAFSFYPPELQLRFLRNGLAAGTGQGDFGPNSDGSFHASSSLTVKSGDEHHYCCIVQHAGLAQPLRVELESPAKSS
T3 sequence (P61769 21-119 limits assumed, chain 2 of 2): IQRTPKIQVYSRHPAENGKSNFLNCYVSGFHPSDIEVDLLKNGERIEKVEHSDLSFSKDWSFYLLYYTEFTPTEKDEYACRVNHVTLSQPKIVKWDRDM

B1: mAbc (antibody, human IgG1, kappa)
heavy: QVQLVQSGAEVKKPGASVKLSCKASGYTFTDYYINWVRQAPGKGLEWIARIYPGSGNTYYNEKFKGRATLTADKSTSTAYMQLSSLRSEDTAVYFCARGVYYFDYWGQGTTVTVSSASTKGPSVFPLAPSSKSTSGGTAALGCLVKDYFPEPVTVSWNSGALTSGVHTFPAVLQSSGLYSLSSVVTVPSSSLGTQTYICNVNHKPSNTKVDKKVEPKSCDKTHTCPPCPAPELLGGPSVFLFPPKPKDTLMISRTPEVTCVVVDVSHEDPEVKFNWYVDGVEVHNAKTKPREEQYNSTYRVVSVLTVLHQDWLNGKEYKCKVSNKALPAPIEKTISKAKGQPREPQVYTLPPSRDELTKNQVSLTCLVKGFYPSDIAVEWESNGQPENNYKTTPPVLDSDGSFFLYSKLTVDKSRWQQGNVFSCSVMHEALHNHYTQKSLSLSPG
light: DIVMTQSPSSLSASVGDRVTITCKASQNVRTNVAWYQQKPGKAPKALIYSASYRYSGVPDRFTGSGSGTDFTLTISSLQPEDFADYFCQQYNSYPRTFGGGTKVEIKRTVAAPSVFIFPPSDEQLKSGTASVVCLLNNFYPREAKVQWKVDNALQSGNSQESVTEQDSKDSTYSLSSTLTLSKADYEKHKVYACEVTHQGLSSPVTKSFNRGEC
notes: Positions are EU numbers; also called corresponding antibody with a wild-type (unmutated) IgG1 Fc domain; copies: 2 + 2
As to B1, the koff in test [1] worked out at 0.14 s⁻¹; in test [2] it was 0.0162 s⁻¹; in the test with recombinant human FcγRI [5], 0.00177 s⁻¹; in test [6] it was 0.0296 s⁻¹; in [8], 0.124 s⁻¹. The Kd in test [3] is 211 nM; with recombinant human FcγRI [13] it was 3.39 nM; in test [14] it was 816 nM; in test [15], 391 nM; in test [16], 127 nM. Besides, the kon was 152000 M⁻¹ s⁻¹ in test [4]; 128000 M⁻¹ s⁻¹ in [7]; 522000 M⁻¹ s⁻¹ with recombinant human FcγRI [10]; 141000 M⁻¹ s⁻¹ in test [11]; 358000 M⁻¹ s⁻¹ in test [12]. Moreover, the binding result in test [9] is listed as “no binding (tested: 500 nM (range given in FIG. 7))”. In addition, the “IC50, inhibition of SCF-dependent M-07e cell proliferation” value in the test with human KIT came out at 1.12 nM.

B2: mAb1 (antibody, human IgG1, kappa)
heavy: QVQLVQSGAEVKKPGASVKLSCKASGYTFTDYYINWVRQAPGKGLEWIARIYPGSGNTYYNEKFKGRATLTADKSTSTAYMQLSSLRSEDTAVYFCARGVYYFDYWGQGTTVTVSSASTKGPSVFPLAPSSKSTSGGTAALGCLVKDYFPEPVTVSWNSGALTSGVHTFPAVLQSSGLYSLSSVVTVPSSSLGTQTYICNVNHKPSNTKVDKKVEPKSCDKTHTCPPCPAPEAQGGPSVFLFPPKPKDTLYITREPEVTCVVVDVSHEDPEVKFNWYVDGVEVHNAKTKPREEQYNSTYRVVSVLTVLHQDWLNGKEYKCQVSNKALPAPIEKTISKAKGQPREPQVYTLPPSRDELTKNQVSLTCLVKGFYPSDIAVEWESNGQPENNYKTTPPVLDSDGSFFLYSKLTVDKSRWQQGNVFSCSVMHEALHNHYTQKSLSLSPG
light: B1 light
notes: Humanized anti-human KIT IgG1 with mutated Fc, expressed in CHO cells; also called antibody mAb 1; anti-KIT antibody; copies: 2 + 2
For the molecule B2, the binding result was “no binding (tested: 500 nM)” with recombinant human FcγRI [17]; “no binding (tested: 500 nM (range given in FIG. 7))” in test [20]; “no binding (tested: 500 nM (range given in FIG. 7))” in [22]; “no binding (tested: 500 nM (range given in FIG. 7))” in test [25]; “no binding (tested: 500 nM)” in test [26]. The Kd in [18] was determined as 0.38 nM; in [23] it was 77.1 nM; in test [27], 0.383 nM. Besides, the kon in [19] was found to be 1.05e+06 M⁻¹ s⁻¹; in [27] it was 2e+06 M⁻¹ s⁻¹. For the same molecule, the koff was found to be 0.000765 s⁻¹ in test [21] and 0.0807 s⁻¹ in test [24]. In the test with human KIT, the “IC50, inhibition of SCF-dependent M-07e cell proliferation” value was found to be 1.11 nM.
